Positions count from the first letter of the chain named. Numbers in names are those of the source. One block for each binder: values may come before it.
What was measured:
[1] = target: T1, bovine pancreatic trypsin inhibitor (bovine, UniProt P00974 36-93); test: scintillation proximity assay with 125I-BPTI
[2] = target: T1, bovine pancreatic trypsin inhibitor; test: not described

B3: HBP mutant (G175N) (other)
chain: IVGGRKARPRQFPFLASIQNQGRHFCGGALIHARFVMTAASCFQSQNPGVSTVVLGAYDLRRRERQSRQTFSISSMSENGYDPQQNLNDLMLLQLDREANLTSSVTILPLPLQNATVEAGTRCQVAGWGSQRSGGRLSRFPRFVNVTVTPEDQCRPNNVCTGVLTRRGGICNGDNGTPLVCEGLAHGVASFSLGPCGRGPDFFTRVALFRDWIDGVLNNPGP
binding result [2]: no binding

B4: [R23S,F25E]HBP (other)
chain: B3 chain with R23S, F25E, N175G
notes: Expressed in sf9 insect cells; also called [R23S,F25E]HBP mutant
binding result [1]: binds

The remaining lines, values ahead:

binding result [1]: binds
B1: native human heparin-binding protein (other)
chain: B3 chain with N175G
notes: also called HBP; hHBP

binding result [1]: no binding
B2: [G175Q]HBP (other)
chain: B3 chain with N175Q
notes: also called [G175Q]HBP mutant

— EP1674110A1 (NOVO NORDISK A/S, dated 2000)
